Reference: article PMC3343046, “Overexpression of the Catalytically Impaired Taspase1^T234V or Taspase1^D233A Variants Does Not Have a Dominant Negative Effect in T(4;11) Leukemia Cells” (PLoS ONE, 2012)
Positions count from the first letter of the chain named. In names and notes the source's numbering stands.

B1: Taspase1-mCherry (wild type) (enzyme, human, UniProt Q9H6P5 1-420, looked up)
chain: MTMEKGMSSGEGLPSRSSQVSAGKITAKELETKQSYKEKRGGFVLVHAGAGYHSESKAKEYKHVCKRACQKAIEKLQAGALATDAVTAALVELEDSPFTNAGMGSNLNLLGEIECDASIMDGKSLNFGAVGALSGIKNPVSVANRLLCEGQKGKLSAGRIPPCFLVGEGAYRWAVDHGIPSCPPNIMTTRFSLAAFKRNKRKLELAERVDTDFMQLKKRRQSSEKENDSGTLDTVGAVVVDHEGNVAAAVSSGGLALKHPGRVGQAALYGCGCWAENTGAHNPYSTAVSTSGCGEHLVRTILARECSHALQAEDAHQALLETMQNKFISSPFLASEDGVLGGVIVLRSCRCSAEPDSSQNKQTLLVEFLWSHTTESMCVGYMSAQDGKAKTHISRLPPGAVAGQSVAIEGGVCRLESPVN
notes: Threonine Aspartase 1 (Taspase1), human, 420 aa; open reading frame cloned from MV4;11 and THP-1 cells; The wild-type proenzyme is autoproteolytically processed in cells into α- and β-subunits; also called Tasp-mCherry; Tasp-mCh; source: HeLa, transfected, in living cells
B2: Tasp^D233A-mCherry (enzyme, human, UniProt Q9H6P5 1-420, looked up)
chain: B1 chain with D233A
notes: Threonine Aspartase 1 (Taspase1), human, 420 aa, with Asp233 changed to Ala; Impaired in autoproteolytic cis-cleavage; also called Taspase1^D233A-mCherry; highly attenuated Taspase1 variant; source: HeLa, transfected, in living cells
B3: Tasp^T234V-mCherry (enzyme, human, UniProt Q9H6P5 1-420, looked up)
chain: B1 chain with T234V
notes: Threonine Aspartase 1 (Taspase1), human, 420 aa, with Thr234 changed to Val; Not autoprocessed; stays a proenzyme; also called Taspase1^T234V-mCherry; catalytically dead Taspase1 mutant; source: HeLa, transfected, in living cells

These binders were tested against T1, TaspCyt (GFP-tagged Taspase1 with a C-terminal nuclear export signal) (human, UniProt Q9H6P5 1-420) (assay: translocation-based protein interaction assay; living HeLa transfectants, 24 h after transfection; nuclear/nucleolar recruitment of a cytoplasmic fluorescent fusion by a nuclear/nucleolar fusion; fluorescence microscopy, and confocal microscopy with the Manders overlap coefficient R). Details: partners not purified.
T1 construct: Threonine Aspartase 1 (Taspase1), human, 420 aa; open reading frame cloned from MV4;11 and THP-1 cells; Still catalytically active, so probably processed in cells into α- and β-subunits; also called GFP-TaspCyt; pTaspcyt; source: HeLa, transfected, in living cells; not shown: NES (strong nuclear export signal), C-terminal, kept
T1 sequence (looked up): B1 chain

| Binder | Manders overlap coefficient R |
| --- | --- |
| B1 | 0.387 |
| B2 | 0.394 |
| B3 | 0.388 |
